Values belong to the molecule of their own block, whether it stands above or below them.
Columns and labels:
Test in all cases: cell-based or functional assay
CXCR1 (human) = CXCR1 (human) (UniProt P25024)
hCCR2b (human) = hCCR2b (human) (UniProt P41597)
hCCR2b (human), P41597 = target: hCCR2b (human), P41597
Sequence of hCCR2b (human), P41597 (P41597 whole entry): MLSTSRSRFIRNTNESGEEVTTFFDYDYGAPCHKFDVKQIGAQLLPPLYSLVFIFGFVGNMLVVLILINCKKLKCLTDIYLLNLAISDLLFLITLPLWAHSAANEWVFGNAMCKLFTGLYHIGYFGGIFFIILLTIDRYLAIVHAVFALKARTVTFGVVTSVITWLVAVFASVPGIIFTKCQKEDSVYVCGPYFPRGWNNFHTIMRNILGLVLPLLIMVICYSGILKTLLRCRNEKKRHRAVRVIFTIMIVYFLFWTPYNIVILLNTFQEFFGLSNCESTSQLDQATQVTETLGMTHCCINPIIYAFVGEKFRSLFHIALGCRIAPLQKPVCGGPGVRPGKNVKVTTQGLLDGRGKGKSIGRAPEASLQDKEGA

Sequence of hCCR2b (human) (P41597 whole entry): as above
Sequence of CXCR1 (human) (P25024 whole entry): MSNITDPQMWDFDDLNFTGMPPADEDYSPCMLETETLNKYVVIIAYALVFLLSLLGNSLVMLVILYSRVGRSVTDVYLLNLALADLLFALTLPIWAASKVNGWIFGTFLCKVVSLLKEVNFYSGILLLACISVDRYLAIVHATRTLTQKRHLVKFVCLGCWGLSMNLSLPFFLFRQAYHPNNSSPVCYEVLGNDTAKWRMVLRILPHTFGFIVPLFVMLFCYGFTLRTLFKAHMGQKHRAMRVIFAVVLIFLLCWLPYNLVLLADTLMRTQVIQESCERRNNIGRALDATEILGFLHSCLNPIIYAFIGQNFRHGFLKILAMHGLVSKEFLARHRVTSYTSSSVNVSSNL

Molecule: recombinant native MCP-1 (from UniProt P13500 24-99) (ligand)
EC50, agonist activity in an Aequorin assay (hCCR2b (human)): 3.1 nM

B1: biotinMCP-2 (CCL8), P80075 24-99 (ligand)
chain: QPDSVSIPITCCFNVINRKIPIQRLESYTRITNIQCPKEAVIFKTKRGKEVCADPKERWVRDSMKHLDQIFQNLKP
modifications: here or on the partner: pyroGlu at position 1 (replaces Gln1); Lys75 epsilon-amino PEG-Biotin; C-terminal amide
EC50, activity (partial agonist) in an Aequorin assay (hCCR2b (human), P41597): 50.9 nM

The next lines start with the values.

EC50, agonist activity in an Aequorin assay (CXCR1 (human)): 5.2 nM
Molecule: recombinant native IL-8 (from UniProt P10145 28-99) (ligand)

EC50, activity (partial agonist) in an Aequorin assay (hCCR2b (human)): 23.5 nM
Molecule: recombinant native MCP-2 (from UniProt P80075 24-99) (ligand)

— patent US20180038859A1
